According to CN108218984A (ZHUHAI TRINOMAB BIOTECHNOLOGY CO LTD; GUANGZHOU TAINUODI …, dated 2018):

Target: 破伤风标准毒素 (破伤风毒素蛋白) (Clostridium tetani, UniProt P04958 2-1315)
Sequence (P04958 2-457 limits assumed, chain 1 of 2): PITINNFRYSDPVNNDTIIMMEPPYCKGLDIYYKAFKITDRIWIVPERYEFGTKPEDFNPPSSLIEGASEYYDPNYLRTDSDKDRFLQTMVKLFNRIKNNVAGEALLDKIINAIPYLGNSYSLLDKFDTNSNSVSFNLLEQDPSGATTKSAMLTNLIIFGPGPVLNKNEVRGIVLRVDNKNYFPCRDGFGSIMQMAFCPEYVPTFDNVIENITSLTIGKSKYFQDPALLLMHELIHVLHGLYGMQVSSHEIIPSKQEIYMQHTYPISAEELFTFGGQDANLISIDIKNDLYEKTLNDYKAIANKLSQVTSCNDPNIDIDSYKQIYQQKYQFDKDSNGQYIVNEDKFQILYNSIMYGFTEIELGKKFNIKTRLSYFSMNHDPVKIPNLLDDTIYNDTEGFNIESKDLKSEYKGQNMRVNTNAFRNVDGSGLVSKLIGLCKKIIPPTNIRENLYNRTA
Sequence (P04958 458-1315 limits assumed, chain 2 of 2): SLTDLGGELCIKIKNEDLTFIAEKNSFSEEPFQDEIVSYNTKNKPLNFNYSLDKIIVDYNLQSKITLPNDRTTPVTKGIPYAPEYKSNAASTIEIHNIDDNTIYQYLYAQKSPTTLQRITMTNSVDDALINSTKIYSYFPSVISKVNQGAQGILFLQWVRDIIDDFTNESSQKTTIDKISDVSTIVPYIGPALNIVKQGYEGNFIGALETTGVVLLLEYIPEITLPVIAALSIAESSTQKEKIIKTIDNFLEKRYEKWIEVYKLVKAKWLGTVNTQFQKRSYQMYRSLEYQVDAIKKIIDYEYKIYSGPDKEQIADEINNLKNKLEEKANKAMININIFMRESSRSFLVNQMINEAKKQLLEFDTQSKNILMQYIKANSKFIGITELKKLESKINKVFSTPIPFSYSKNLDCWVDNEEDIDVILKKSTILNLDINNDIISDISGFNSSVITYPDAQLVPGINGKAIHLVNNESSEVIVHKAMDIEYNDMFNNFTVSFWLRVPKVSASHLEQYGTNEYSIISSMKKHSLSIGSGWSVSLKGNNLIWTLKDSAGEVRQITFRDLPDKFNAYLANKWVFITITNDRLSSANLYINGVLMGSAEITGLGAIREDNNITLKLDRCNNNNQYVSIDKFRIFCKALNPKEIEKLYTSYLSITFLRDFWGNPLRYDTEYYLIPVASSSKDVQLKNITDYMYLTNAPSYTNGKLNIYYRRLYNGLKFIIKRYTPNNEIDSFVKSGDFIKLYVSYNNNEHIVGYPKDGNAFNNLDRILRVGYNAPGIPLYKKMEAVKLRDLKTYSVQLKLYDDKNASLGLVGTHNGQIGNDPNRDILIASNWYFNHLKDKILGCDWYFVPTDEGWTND

B1: TRN0011抗体 (全人源抗破伤风毒素中和抗体) (antibody, V domains shown)
VH: QVQLQESGAGLVKPSETLSLTCGVAGGPFTGSYLSWIRQPPGKGLEWIGEVSQSGSTSYNPSLKSRVTISVDTSKSQFSLKLSSVTAADTAVYYCARLTKHYINSAYWGQGTLVTVSS
VL: DIQMTQSPSILSASVGDRVTITCRASQIIGSWLAWYQQKPGKAPTLVIYKASRLDSGVPSRFSGTESGTEFTLTISSLQPDDFATYYCQQYNSYPYTFGQGTKLEIK
Kd: 905 pM | koff: 3.87e-05 s⁻¹ | kon: 42700 M⁻¹ s⁻¹
